Results taken from patent US20150291675A1 (published 2015).

T1: synthetic non-modified human Hepcidin-25 (human, not fully specified)
T1 construct: also called hHepcidin-25; non-biotinylated human Hepcidin-25
T1 peptide: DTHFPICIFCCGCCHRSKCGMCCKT

T2: C-terminal biotinylated human Hepcidin-25 (human, not fully specified; biotinylated via a Lysine residue coupled to the C-terminus via a Mini-PEG linker)
T2 construct: Captured on plates via Neutravidin in the ELISAs; also called C-terminal biotinylated hHepcidin; C-terminal biotinylated hepcidin (Bachem AG)
T2 peptide: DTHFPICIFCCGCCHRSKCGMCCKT


Target: T1, synthetic non-modified human Hepcidin-25
Assay: SPR (Biacore T100), mutein amine-coupled to CM5 chip, hepcidin as analyte, 1:1 model
Experimental: Lipocalin muteins were immobilized to a CM5 sensor chip using standard amine chemistry. The surface of the chip was activated using EDC and NHS. Subsequently, 20 μg/mL lipocalin mutein solutions in 10 mM sodium acetate pH 4.5 (60 μg/mL in 10 mM sodium acetate pH 4.0 for peglyted lipocalin mutein) were applied at a flow rate of 5 μL/min until a surface density of 500-700 resonance units (RU) for non-modified lipocalin muteins and of approximately 1600 RU for pegylated lipocalin with the sequence of SEQ ID NO: 13 was achieved. Residual activated groups were saturated with ethanolamine. The reference channels were treated with EDC/NHS following ethanolamine (blank immobilization). All reagents and materials were purchased from GE Healthcare.
Serial dilutions of human and cynomolgus Hepcidin-25 in running buffer (HBS-EP+, GE Healthcare, BR-1006-68) were applied to the prepared surface. The following parameters were used for the binding assay, contact time 60 s, dissociation time 180-360 s, flow rate 30 μL/min. All measurements were performed on a Biacore T100 instrument (GE Healthcare) at 25° C.
Data were evaluated with Biacore T100 Evaluation software (V 2.0.1). Double referencing was used. The 1:1 Binding model (Langmuir) was used to fit the raw data.

Binder | binding result
lipocalin mutein of SEQ ID NO: 1 (designed binder, also called hNGAL mutein; Lcn2 mutein; not shown: C-terminal Strep-tag II encoded by phNGAL98) QDSTSDLIPAPPLSKVPLQQNFQDNQFHGKWYVVGLAGNEVLREDKDPMKMWATIYELEEDKSYNVTIVMFLAKKCEYLFQTFVPGSQPGEFTLGDIKSSPGRTSGLVRVVSTNYNQHAMVFFKTVWQNREVFWITLYGRTKELTSELKENFIRFSKSLGLPENHIVFPVPIDQCIDG | binds
lipocalin mutein of SEQ ID NO: 8 (designed binder, Purified with C-terminal Strep-tag II; also called hNGAL mutein; Lcn2 mutein; not shown: C-terminal Strep-tag II encoded by phNGAL98) QDSTSDLIPAPPLSKVPLQQNFQDNQFHGKWYVVGLAGNEVLREDKDPMKMWATIYELKEDKSYNVTIVMPLAEKCEYLFQTFVPGSQPGEFTLGGIKSGPGRTSGLVRVVSTNYNQHAMVFFKVVWQNREVFWVTLYGRTKELTSELKENFIRFSKSLGLPENHIVFPVPIDQCIDG | binds

Target: T2, C-terminal biotinylated human …
Assay: HT-screening ELISA, reverse ELISA and competition ELISA; T7- and Strep-tagged clone in crude lysate
Experimental: Lipocalin muteins were selected in a HT-screening ELISA. Therein, NGAL variants equipped with a T7 detection tag (Novagen) as well as a Strep-tag II affinity tag (IBA) were soluble expressed in a 96 well microtiter plate using the E. coli strain TG1/F with phNGAL 101. This vector corresponds to phNGAL 98 (SEQ ID NO: 31) with an N-terminal T7 tag consisting of 11 amino acids ([…]) (SEQ ID NO: 34, see also FIG. 4B). Lipocalin mutein expression was induced overnight at 22° C. at 700 rpm with anhydrotetracycline (0.2 μg/ml) at an OD₅₅₀ of 0.6. […] To minimize non-specific binding in the subsequent ELISA screen, the crude cell lysates were supplemented with 2% w/v BSA and 0.1% v/v Tween 20 and tested in ELISA for binding to human Hepcidin-25. Therefore, soluble C-terminal biotinylated human Hepcidin-25 was immobilized on wells of black Fluotrac 600 ELISA plates (Greiner; 384 well) with 1 μg/ml via capturing by Neutravidin (5 μg/ml, Thermo Scientific). Neutravidin, Streptavidin, 5 μg/ml each, and 3% milk were used as negative control. Plates were blocked with PBST/0.1 containing 2% w/v BSA, and subsequently incubated with the bacterial cell extract for 1 h at room temperature plates were washed five times and bound Lipocalin muteins were detected via an anti-T7 monoclonal antibody-HRP conjugate (Novagen), diluted 1:10.000 in PBST/O 1. Therefore, QuantaBlu™ (Pierce; 1:2 diluted in PBS/T 0.1%) was used as fluorogenic HRP substrate. After 45 min of signal development at room temperature fluorescence was excited at a wavelength of 320 nm (±12.5 nm) and measured at 430 nm (±17.5 nm) in a GENiosPlus plate reader (Tecan).
In a reverse ELISA approach soluble expressed muteins from the crude cell lysate were captured in ELISA plates via their T7-tag following incubation with varying amounts of C-terminal biotinylated hHepcidin to reach target-limiting conditions in order to differentiate the muteins by their affinity. Binding of the target was detected via Extravidin-HRP conjugate (Sigma). One could compete for mutein binding by the addition of 100 nM non-biotinylated human Hepcidin-25 indicating, that the muteins bind the non-modified hHepcidin-25 as well.

Binder | binding result
lipocalin mutein of SEQ ID NO: 12 (designed binder, Purified with C-terminal Strep-tag II; also called hNGAL mutein; Lcn2 mutein; not shown: C-terminal Strep-tag II encoded by phNGAL98) QDSTSDLIPAPPLSKVPLQQNFQDNQFHGKWYVVGLAGNEVLREDKDPMKMWATIYELKEDKSYNVTIVMFLAEECEYLFQTFVPGSQPGEFTLGDIKSSPGRTSGLVRVVSTNYNQHAMVFFKVVWQNREVFWITLYGRTKELTSELKKNFIRFSKSLGLPENHIVFPVPIDQCIDG | binds
lipocalin mutein of SEQ ID NO: 8 (designed binder, Purified with C-terminal Strep-tag II; also called hNGAL mutein; Lcn2 mutein; not shown: C-terminal Strep-tag II encoded by phNGAL98) QDSTSDLIPAPPLSKVPLQQNFQDNQFHGKWYVVGLAGNEVLREDKDPMKMWATIYELKEDKSYNVTIVMPLAEKCEYLFQTFVPGSQPGEFTLGGIKSGPGRTSGLVRVVSTNYNQHAMVFFKVVWQNREVFWVTLYGRTKELTSELKENFIRFSKSLGLPENHIVFPVPIDQCIDG | binds
lipocalin mutein of SEQ ID NO: 11 (designed binder, Purified with C-terminal Strep-tag II; also called hNGAL mutein; Lcn2 mutein; not shown: C-terminal Strep-tag II encoded by phNGAL98) QDSTSDLIPAPPLSKVPLQQNFQDNQFHGKWYVVGLAGNEILREDKDPMKMWATIYELKEDKSYNVTIVMFLAKKCEYLFQTFVPGSQPGEFTLGDIKSSPGRTSGLVRVVSTNYNQHAMVFFKVVWQNREVFWITLYGRTKELTSGLKENFIRFSKSLGLPENHIVFPVPIDQCIDG | binds
lipocalin mutein of SEQ ID NO: 9 (designed binder, Purified with C-terminal Strep-tag II; also called hNGAL mutein; Lcn2 mutein; not shown: C-terminal Strep-tag II encoded by phNGAL98) QDSTSDLIPAPPLSKVPLQQNFQDNQFHGKWYVVGLAGNEVLREDKDPMKMWATIYELKEDKSYNVTIVMSLAKKCEYLFQTFVPGSQPGEFTLGDIKSSPGRTSGLVRVVSTNYNQHAMVFFKVVWQNREVFWITLYGRTKELTSGLKENFIRFSKSLGLPENHIVFPVPIDQCIDG | binds
lipocalin mutein of SEQ ID NO: 10 (designed binder, Purified with C-terminal Strep-tag II; also called hNGAL mutein; Lcn2 mutein; not shown: C-terminal Strep-tag II encoded by phNGAL98) QDSTSDLIPAPPLSKVPLQQNFQDNQFHGKWYVVGLAGNEILREDKDPMKMWATIYELKEDRSYNVTIVMFLAKKCEYLFQTFVPGSQPGEFTLGDIKSSPGRTSGLVRVVSTNYNQHAMVFFKVVWQNREVFWITLYGRTKELTPELKENFIRFSKSLGLPENHIVFPVPIDQCIDGF | binds

Target: T2, C-terminal biotinylated human …
Assay: direct ELISA, hepcidin captured via Neutravidin
Experimental: A “direct” ELISA was performed to verify the binding affinity and specificity of the selected Lcn2 muteins. Therefore, a constant concentration of 1 μg/ml C-terminal biotinylated hepcidin (Bachem AG, CH) was captured on the surface of a polystyrol plate (Greiner, GE) via Neutravidin (Thermo Scientific, 5 μg/ml). Two step dilution series of purified Lcn2 muteins were incubated with the captured hepcidin […] at room temperature and detected either via the Strep-tag II using a rabbit anti-strep-tag II polyconal antibody (GenScript, USA) or by using a scaffold-specific polyclonal rabbit antibody. In both cases an anti rabbit IgG-HRP conjugate (Abcam, UK) was employed as secondary detection antibody.

Binder | binding result
lipocalin mutein of SEQ ID NO: 5 (designed binder, Purified with C-terminal Strep-tag II; also called hNGAL mutein; Lcn2 mutein; not shown: C-terminal Strep-tag II encoded by phNGAL98) QDSTSDLIPAPPLSKVPLQQNFQDNQFHGKWYVVGAAGNSLLREDKDPMKMWATIYELKEDKSYNVTRVNFGGKKCSYLIETFVPGSQPGEFTLGSIKSRPGATSVLVRVVSTNYNQHAMVFFKLVTQNREVFWITLYGRTKELTSELKENFIRFSKSLGLPENHIVFPVPIDQCIDG | binds
lipocalin mutein of SEQ ID NO: 1 (designed binder, also called hNGAL mutein; Lcn2 mutein; not shown: C-terminal Strep-tag II encoded by phNGAL98) QDSTSDLIPAPPLSKVPLQQNFQDNQFHGKWYVVGLAGNEVLREDKDPMKMWATIYELEEDKSYNVTIVMFLAKKCEYLFQTFVPGSQPGEFTLGDIKSSPGRTSGLVRVVSTNYNQHAMVFFKTVWQNREVFWITLYGRTKELTSELKENFIRFSKSLGLPENHIVFPVPIDQCIDG | binds
lipocalin mutein of SEQ ID NO: 3 (designed binder, Purified with C-terminal Strep-tag II; also called hNGAL mutein; Lcn2 mutein; not shown: C-terminal Strep-tag II encoded by phNGAL98) QDSTSDLIPAPPLSKVPLQQNFQDNQFHGKWYVVGVAGNGLLREDKDPLKMHATIYELKEDKSYNVTRVLFVRKKCRYYISTFVPGSQPGEFTLGRIKSEPGRTSFLVRVVSTNYNQHAMVFFKMVWQNREVFWITLYGRTKELTSELKENFIRFSKSLGLPENHIVFPVPIDQCIDG | binds
lipocalin mutein of SEQ ID NO: 7 (designed binder, Purified with C-terminal Strep-tag II; also called hNGAL mutein; Lcn2 mutein; not shown: C-terminal Strep-tag II encoded by phNGAL98) QDSTSDLIPAPPLSKVPLQQNFQDNQFHGKWYVVGLAGNRVLREDKDPQKMFATIYELKEDKSYNVTGVDFRTKKCLYSIGTFVPGSQPGEFTLGVIKSQPGWTSYLVRVVSTNYNQHAMVFFKTVWQNREVFWITLYGRTKELTSELKENFIRFSKSLGLPENHIVFPVPIDQCIDG | binds
lipocalin mutein of SEQ ID NO: 4 (designed binder, Purified with C-terminal Strep-tag II; also called hNGAL mutein; Lcn2 mutein; not shown: C-terminal Strep-tag II encoded by phNGAL98) QDSTSDLIPAPPLSKVPLQQNFQDNQFHGKWYVVGVAGNEMLREDKDPLKMLATIYELKEDKSYNVTRVMFEYKKCVYLIETFVPGSQPGEFTLGTIKSVPGLTSGLVRVVSTNYNQHAMVFFKRVWQNREVFWITLYGRTKELTSELKENFIRFSKSLGLPENHIVFPVPIDQCIDG | binds
lipocalin mutein of SEQ ID NO: 6 (designed binder, Purified with C-terminal Strep-tag II; also called hNGAL mutein; Lcn2 mutein; not shown: C-terminal Strep-tag II encoded by phNGAL98) QDSTSDLIPAPPLSKVPLQQNFQDNQFHGKWYVVGLAGNEILREDKDPLKMWATIYELKEDKSYNVTRVQFGEKKCGYGIETFVPGSQPGEFTLGSIKSVPGGTSRLVRVVSTNYNQHAMVFFKFVWQNREVFWITLYGRTKELTSELKENFIRFSKSLGLPENHIVFPVPIDQCIDG | binds
lipocalin mutein of SEQ ID NO: 2 (designed binder, Purified with C-terminal Strep-tag II; also called hNGAL mutein; Lcn2 mutein; not shown: C-terminal Strep-tag II encoded by phNGAL98) QDSTSDLIPAPPLSKVPLQQNFQDNQFHGKWYVVGTAGNSILREDKDPQKMWATIYELKEDKSYNVTRVFFEGKKCRYVIETFVPGSQPGEFTLGKIKSAPGGTSILVRVVSTNYNQHAMVFFKVVWQNRELFWITLYGRTKELTSELKENFIRFSKSLGLPENHIVFPVPIDQCIDG | binds
